Test results published in article PMC2978343.

Columns and labels:
[1] = target: Ecl18kI R174A mutant (UniProt O87963)
[2] = target: Ecl18kI R174A mutant (UniProt O87963); assay: atomic force microscopy
[3] = target: Ecl18kI restriction endonuclease, wild type (UniProt O87963); assay: tethered particle motion

| phage lambda DNA cleavage activity, % of wt [1] | stoichiometry N [2] | k unloop (loop breakage rate constant, tetramer to two DNA-bound dimers) [3] | Substance |
| --- | --- | --- | --- |
| 0.2% | 2 | – | Ecl18kI R174A mutant (from UniProt O87963 1-305) (enzyme) |
| – | – | 0.86 s⁻¹ | Ecl18kI restriction endonuclease, wild type (from UniProt O87963 1-305) (enzyme) |
